# Results from the supplement of paper PMC5998384.
# Experiments:
# HeLa Kyoto [1] = experiment: thermal stability score vs G1/S (z-score of summed log2 fold changes over temperatures); higher = more thermally stable than in G1/S
# HeLa Kyoto [2] = experiment: solubility in G1/S (NP-40 vs SDS abundance) (log2 ratio); higher = more soluble; details: cell cycle stage: G1/S
# HeLa Kyoto [3] = experiment: melting temperature (median over replicates), in situ; higher = more thermally stable
# HeLa Kyoto [4] = experiment: solubility change mitosis vs G1/S (difference of NP-40 vs SDS log2 ratios) (log2 ratio difference); higher = more soluble in mitosis
# [5] = cell cycle stage: early G1 (4.5 h after nocodazole release)
# 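Wherever melting temperature (median over replicates), in situ is given: HeLa Kyoto cells synchronized by double thymidine or nocodazole block, proteins quantified by TMT10plex mass spectrometry, three independent biological replicates.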
# 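Wherever solubility change mitosis vs G1/S (difference of NP-40 vs SDS log2 ratios) is given: synchronized HeLa Kyoto cells (double thymidine block for G1/S, nocodazole release for mitosis), protein amounts in NP-40 versus SDS lysates quantified by mass spectrometry, three biological replicates.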
# 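Wherever solubility in G1/S (NP-40 vs SDS abundance) is given: HeLa Kyoto cells arrested at G1/S by double thymidine block, proteins quantified by TMT10plex mass spectrometry in mild NP-40 versus SDS extracts, three biological replicates.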
# 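Wherever thermal stability score vs G1/S (z-score of summed log2 fold changes over temperatures) is given: synchronized HeLa Kyoto cells, proteins quantified by TMT10plex mass spectrometry, three biological replicates, mitosis taken 0.5 h after nocodazole release, G1/S directly after double thymidine block.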
# Sequence of AGAP3 (chain, as listed by the source): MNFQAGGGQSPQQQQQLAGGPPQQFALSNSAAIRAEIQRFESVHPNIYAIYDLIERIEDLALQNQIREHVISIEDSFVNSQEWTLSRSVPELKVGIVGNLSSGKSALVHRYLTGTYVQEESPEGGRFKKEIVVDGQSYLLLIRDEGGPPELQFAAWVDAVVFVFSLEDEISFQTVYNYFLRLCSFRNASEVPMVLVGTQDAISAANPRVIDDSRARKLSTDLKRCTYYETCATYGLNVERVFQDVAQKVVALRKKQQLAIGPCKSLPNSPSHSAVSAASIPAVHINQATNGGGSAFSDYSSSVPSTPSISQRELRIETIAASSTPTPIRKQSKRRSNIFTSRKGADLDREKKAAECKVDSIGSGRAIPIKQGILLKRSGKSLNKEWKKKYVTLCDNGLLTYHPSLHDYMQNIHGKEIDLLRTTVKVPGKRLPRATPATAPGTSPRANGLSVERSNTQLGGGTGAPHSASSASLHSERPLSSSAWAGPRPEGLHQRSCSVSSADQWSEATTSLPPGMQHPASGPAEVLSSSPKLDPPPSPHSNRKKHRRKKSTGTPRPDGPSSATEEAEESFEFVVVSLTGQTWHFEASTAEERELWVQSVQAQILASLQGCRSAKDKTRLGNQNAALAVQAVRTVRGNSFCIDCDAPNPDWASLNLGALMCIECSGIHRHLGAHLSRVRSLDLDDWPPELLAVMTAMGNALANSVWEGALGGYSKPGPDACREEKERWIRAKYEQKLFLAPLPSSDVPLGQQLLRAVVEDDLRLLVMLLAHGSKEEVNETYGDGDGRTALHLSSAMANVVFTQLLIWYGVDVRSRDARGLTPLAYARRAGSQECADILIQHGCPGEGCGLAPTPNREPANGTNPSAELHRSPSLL
# Sequence of PGRMC1 (chain, as listed by the source): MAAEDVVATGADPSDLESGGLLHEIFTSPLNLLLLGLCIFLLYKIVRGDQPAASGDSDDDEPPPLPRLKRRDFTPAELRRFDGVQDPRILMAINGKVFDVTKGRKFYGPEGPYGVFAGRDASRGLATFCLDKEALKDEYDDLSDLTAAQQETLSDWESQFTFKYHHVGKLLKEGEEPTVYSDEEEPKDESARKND
Substance,thermal stability score (HeLa Kyoto [1]; [5]),thermal stability score (HeLa Kyoto [1]; cell cycle stage: mitosis),solubility in G1/S (log2) (HeLa Kyoto [2]),melting temperature (HeLa Kyoto [3]; cell cycle stage: G1/S),melting temperature (HeLa Kyoto [3]; cell cycle stage: mitosis),solubility change mitosis (log2) (HeLa Kyoto [4])
MGDMTNSDFYSKNQRNESSHGGEFGCTMEELRSLMELRGTEAVVKIKETYGDTEAICRRLKTSPVEGLPGTAPDLEKRKQIFGQNFIPPKKPKTFLQLVWEALQDVTLIILEIAAIISLGLSFYHPPGEGNEGCATAQGGAEDEGEAEAGWIEGAAILLSVICVVLVTAFNDWSKEKQFRGLQSRIEQEQKFTVVRAGQVVQIPVAEIVVGDIAQVKYGDLLPADGLFIQGNDLKIDESSLTGESDQVRKSVDKDPMLLSGTHVMEGSGRMLVTAVGVNSQTGIIFTLLGAGGEEEEKKDKKGVKKGDGLQLPAADGAAASNAADSANASLVNGKMQDGNVDASQSKAKQQDGAAAMEMQPLKSAEGGDADDRKKASMHKKEKSVLQGKLTKLAVQIGKAGLVMSAITVIILVLYFTVDTFVVNKKPWLPECTPVYVQYFVKFFIIGVTVLVVAVPEGLPLAVTISLAYSVKKMMKDNNLVRHLDACETMGNATAICSDKTGTLTTNRMTVVQAYVGDVHYKEIPDPSSINTKTMELLINAIAINSAYTTKILPPEKEGALPRQVGNKTECGLLGFVLDLKQDYEPVRSQMPEEKLYKVYTFNSVRKSMSTVIKLPDESFRMYSKGASEIVLKKCCKILNGAGEPRVFRPRDRDEMVKKVIEPMACDGLRTICVAYRDFPSSPEPDWDNENDILNELTCICVVGIEDPVRPEVPEAIRKCQRAGITVRMVTGDNINTARAIAIKCGIIHPGEDFLCLEGKEFNRRIRNEKGEIEQERIDKIWPKLRVLARSSPTDKHTLVKGIIDSTHTEQRQVVAVTGDGTNDGPALKKADVGFAMGIAGTDVAKEASDIILTDDNFSSIVKAVMWGRNVYDSISKFLQFQLTVNVVAVIVAFTGACITQDSPLKAVQMLWVNLIMDTFASLALATEPPTETLLLRKPYGRNKPLISRTMMKNILGHAVYQLALIFTLLFVGEKMFQIDSGRNAPLHSPPSEHYTIIFNTFVMMQLFNEINARKIHGERNVFDGIFRNPIFCTIVLGTFAIQIVIVQFGGKPFSCSPLQLDQWMWCIFIGLGELVWGQVIATIPTSRLKFLKEAGRLTQKEEIPEEELNEDVEEIDHAERELRRGQILWFRGLNRIQTQIRVVKAFRSSLYEGLEKPESRTSIHNFMAHPEFRIEDSQPHIPLIDDTDLEEDAALKQNSSPPSSLNKNNSAIDSGINLTTDTSKSATSSSPGSPIHSLETSL [ATP2B2],-1.72,-2.96,-0.538,54.2 °C,53.6 °C,-0.123
MGCWGRNRGRLLCMLALTFMFMVLEVVVSRVTSSLAMLSDSFHMLSDVLALVVALVAERFARRTHATQKNTFGWIRAEVMGALVNAIFLTGLCFAILLEAIERFIEPHEMQQPLVVLGVGVAGLLVNVLGLCLFHHHSGFSQDSGHGHSHGGHGHGHGLPKGPRVKSTRPGSSDINVAPGEQGPDQEETNTLVANTSNSNGLKLDPADPENPRSGDTVEVQVNGNLVREPDHMELEEDRAGQLNMRGVFLHVLGDALGSVIVVVNALVFYFSWKGCSEGDFCVNPCFPDPCKAFVEIINSTHASVYEAGPCWVLYLDPTLCVVMVCILLYTTYPLLKESALILLQTVPKQIDIRNLIKELRNVEGVEEVHELHVWQLAGSRIIATAHIKCEDPTSYMEVAKTIKDVFHNHGIHATTIQPEFASVGSKSSVVPCELACRTQCALKQCCGTLPQAPSGKDAEKTPAVSISCLELSNNLEKKPRRTKAENIPAVVIEIKNMPNKQPESSL [SLC30A1],-2.04,-1.95,-0.0235,58.4 °C,59.4 °C,-0.0896
MVQAWYMDDAPGDPRQPHRPDPGRPVGLEQLRRLGVLYWKLDADKYENDPELEKIRRERNYSWMDIITICKDKLPNYEEKIKMFYEEHLHLDDEIRYILDGSGYFDVRDKEDQWIRIFMEKGDMVTLPAGIYHRFTVDEKNYTKAMRLFVGEPVWTAYNRPADHFEARGQYVKFLAQTA [ADI1],-0.911,-0.735,0.18,51.1 °C,51.1 °C,-0.0474
WIZ,0.511,-0.305,-0.0213,50.4 °C,50.8 °C,0.321
DOCK11,0.076,-0.52,-0.234,51.4 °C,51.5 °C,-0.145
MAAAAVSGALGRAGWRLLQLRCLPVARCRQALVPRAFHASAVGLRSSDEQKQQPPNSFSQQHSETQGAEKPDPESSHSPPRYTDQGGEEEEDYESEEQLQHRILTAALEFVPAHGWTAEAIAEGAQSLGLSSAAASMFGKDGSELILHFVTQCNTRLTRVLEEEQKLVQLGQAEKRKTDQFLRDAVETRLRMLIPYIEHWPRALSILMLPHNIPSSLSLLTSMVDDMWHYAGDQSTDFNWYTRRAMLAAIYNTTELVMMQDSSPDFEDTWRFLENRVNDAMNMGHTAKQVKSTGEALVQGLMGAAVTLKNLTGLNQRR [COQ9],-0.112,0.754,0.16,51.5 °C,51.8 °C,0.333
MSDGFDRAPGAGRGRSRGLGRGGGGPEGGGFPNGAGPAERARHQPPQPKAPGFLQPPPLRQPRTTPPPGAQCEVPASPQRPSRPGALPEQTRPLRAPPSSQDKIPQQNSESAMAKPQVVVAPVLMSKLSVNAPEFYPSGYSSSYTESYEDGCEDYPTLSEYVQDFLNHLTEQPGSFETEIEQFAETLNGCVTTDDALQELVELIYQQATSIPNFSYMGARLCNYLSHHLTISPQSGNFRQLLLQRCRTEYEVKDQAAKGDEVTRKRFHAFVLFLGELYLNLEIKGTNGQVTRADILQVGLRELLNALFSNPMDDNLICAVKLLKLTGSVLEDAWKEKGKMDMEEIIQRIENVVLDANCSRDVKQMLLKLVELRSSNWGRVHATSTYREATPENDPNYFMNEPTFYTSDGVPFTAADPDYQEKYQELLEREDFFPDYEENGTDLSGAGDPYLDDIDDEMDPEIEEAYEKFCLESERKRKQ [PAIP1],1.49,1.64,0.466,52.9 °C,52.8 °C,0.154
MMPTPVILLKEGTDSSQGIPQLVSNISACQVIAEAVRTTLGPRGMDKLIVDGRGKATISNDGATILKLLDVVHPAAKTLVDIAKSQDAEVGDGTTSVTLLAAEFLKQVKPYVEEGLHPQIIIRAFRTATQLAVNKIKEIAVTVKKADKVEQRKLLEKCAMTALSSKLISQQKAFFAKMVVDAVMMLDDLLQLKMIGIKKVQGGALEDSQLVAGVAFKKTFSYAGFEMQPKKYHNPKIALLNVELELKAEKDNAEIRVHTVEDYQAIVDAEWNILYDKLEKIHHSGAKVVLSKLPIGDVATQYFADRDMFCAGRVPEEDLKRTMMACGGSIQTSVNALSADVLGRCQVFEETQIGGERYNFFTGCPKAKTCTFILRGGAEQFMEETERSLHDAIMIVRRAIKNDSVVAGGGAIEMELSKYLRDYSRTIPGKQQLLIGAYAKALEIIPRQLCDNAGFDATNILNKLRARHAQGGTWYGVDINNEDIADNFEAFVWEPAMVRINALTAASEAACLIVSVDETIKNPRSTVDAPTAAGRGRGRGRPH [CCT7],-0.684,-1.22,0.162,54.1 °C,54.2 °C,-0.0678
PGRMC1,-0.433,-0.0697,0.15,53.1 °C,52.8 °C,0.219
MLLSVPLLLGLLGLAVAEPAVYFKEQFLDGDGWTSRWIESKHKSDFGKFVLSSGKFYGDEEKDKGLQTSQDARFYALSASFEPFSNKGQTLVVQFTVKHEQNIDCGGGYVKLFPNSLDQTDMHGDSEYNIMFGPDICGPGTKKVHVIFNYKGKNVLINKDIRCKDDEFTHLYTLIVRPDNTYEVKIDNSQVESGSLEDDWDFLPPKKIKDPDASKPEDWDERAKIDDPTDSKPEDWDKPEHIPDPDAKKPEDWDEEMDGEWEPPVIQNPEYKGEWKPRQIDNPDYKGTWIHPEIDNPEYSPDPSIYAYDNFGVLGLDLWQVKSGTIFDNFLITNDEAYAEEFGNETWGVTKAAEKQMKDKQDEEQRLKEEEEDKKRKEEEEAEDKEDDEDKDEDEEDEEDKEEDEEEDVPGQAKDEL [CALR],3.64,3.96,0.0117,54.6 °C,54.9 °C,0.0133
AGAP3,0.047,0.315,0.259,49.3 °C,49.9 °C,-0.0465
MSPARRCRGMRAAVAASVGLSEGPAGSRSGRLFRPPSPAPAAPGARLLRLPGSGAVQAASPERAGWTEALRAAVAELRAGAVVAVPTDTLYGLACAASCSAALRAVYRLKGRSEAKPLAVCLGRVADVYRYCRVRVPEGLLKDLLPGPVTLVMERSEELNKDLNPFTPLVGIRIPDHAFMQDLAQMFEGPLALTSANLSSQASSLNVEEFQDLWPQLSLVIDGGQIGDGQSPECRLGSTVVDLSVPGKFGIIRPGCALESTTAILQQKYGLLPSHASYL [YRDC],0.325,0.668,0.378,52.3 °C,52.7 °C,-0.0312
MSCPVPACCALLLVLGLCRARPRNALLLLADDGGFESGAYNNSAIATPHLDALARRSLLFRNAFTSVSSCSPSRASLLTGLPQHQNGMYGLHQDVHHFNSFDKVRSLPLLLSQAGVRTGIIGKKHVGPETVYPFDFAYTEENGSVLQVGRNITRIKLLVRKFLQTQDDRPFFLYVAFHDPHRCGHSQPQYGTFCEKFGNGESGMGRIPDWTPQAYDPLDVLVPYFVPNTPAARADLAAQYTTVGRMDQGVGLVLQELRDAGVLNDTLVIFTSDNGIPFPSGRTNLYWPGTAEPLLVSSPEHPKRWGQVSEAYVSLLDLTPTILDWFSIPYPSYAIFGSKTIHLTGRSLLPALEAEPLWATVFGSQSHHEVTMSYPMRSVQHRHFRLVHNLNFKMPFPIDQDFYVSPTFQDLLNRTTAGQPTGWYKDLRHYYYRARWELYDRSRDPHETQNLATDPRFAQLLEMLRDQLAKWQWETHDPWVCAPDGVLEEKLSPQCQPLHNEL [SGSH],-1.28,-1.81,0.401,53.5 °C,58 °C,-0.261
MSGRSKRESRGSTRGKRESESRGSSGRVKRERDREREPEAASSRGSPVRVKREFEPASAREAPASVVPFVRVKREREVDEDSEPEREVRAKNGRVDSEDRRSRHCPYLDTINRSVLDFDFEKLCSISLSHINAYACLVCGKYFQGRGLKSHAYIHSVQFSHHVFLNLHTLKFYCLPDNYEIIDSSLEDITYVLKPTFTKQQIANLDKQAKLSRAYDGTTYLPGIVGLNNIKANDYANAVLQALSNVPPLRNYFLEEDNYKNIKRPPGDIMFLLVQRFGELMRKLWNPRNFKAHVSPHEMLQAVVLCSKKTFQITKQGDGVDFLSWFLNALHSALGGTKKKKKTIVTDVFQGSMRIFTKKLPHPDLPAEEKEQLLHNDEYQETMVESTFMYLTLDLPTAPLYKDEKEQLIIPQVPLFNILAKFNGITEKEYKTYKENFLKRFQLTKLPPYLIFCIKRFTKNNFFVEKNPTIVNFPITNVDLREYLSEEVQAVHKNTTYDLIANIVHDGKPSEGSYRIHVLHHGTGKWYELQDLQVTDILPQMITLSEAYIQIWKRRDNDETNQQGA [USP39],-0.187,-0.193,-0.4,51.4 °C,51.9 °C,0.178
